Assay results: article PMC2685691 (The Journal of Biological Chemistry, 2009)
Values joined by “and” are separate entries in the source; they are usually repeats but may differ in a detail not shown here. Equal values may be shown once.

How the values were obtained:
Assay in all cases: NMR titration
β3-integrin tail = β3-integrin tail (UniProt P05106)
talin F3 K324D (mouse) = talin F3 K324D (mouse) (UniProt P26039)
talin F3 Y377A (mouse) = talin F3 Y377A (mouse) (UniProt P26039)
talin 1655–1822 Q1764A = talin 1655–1822 Q1764A (mouse, UniProt P26039 1655-1822, Q1764A)
Sequence of talin 1655–1822 Q1764A (P26039 1655-1822 Q1764A): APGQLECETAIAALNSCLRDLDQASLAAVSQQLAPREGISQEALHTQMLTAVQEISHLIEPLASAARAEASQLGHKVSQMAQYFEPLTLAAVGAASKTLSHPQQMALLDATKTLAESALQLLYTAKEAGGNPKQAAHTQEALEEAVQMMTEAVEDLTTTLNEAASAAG

talin 1655–1822 Y1777A = talin 1655–1822 Y1777A (mouse, UniProt P26039 1655-1822, Y1777A)
Sequence of talin 1655–1822 Y1777A (P26039 1655-1822 Y1777A): as the sequence (P26039 1655-1822 Q1764A) above, with A110Q, Y123A counted along it

talin 1655–1822 S1684D = talin 1655–1822 S1684D (mouse, UniProt P26039 1655-1822, S1684D)
Sequence of talin 1655–1822 S1684D (P26039 1655-1822 S1684D): as the sequence (P26039 1655-1822 Q1764A) above, with S30D, A110Q counted along it

[1] = molecular target: talin 1655–1822 rod domain (mouse, UniProt P26039 1655-1822)
Sequence of talin 1655–1822 rod domain (mouse, UniProt P26039 1655-1822) (P26039 1655-1822): as the sequence (P26039 1655-1822 Q1764A) above, with A110Q counted along it

talin 1655–1822 T1767A = talin 1655–1822 T1767A (mouse, UniProt P26039 1655-1822, T1767A)
Sequence of talin 1655–1822 T1767A (P26039 1655-1822 T1767A): as the sequence (P26039 1655-1822 Q1764A) above, with A110Q, T113A counted along it

[2] = molecular target: U-15N-labeled talin F3 (309–405) (mouse, UniProt P26039 309-405)
Sequence of U-15N-labeled talin F3 (309–405) (P26039 309-405): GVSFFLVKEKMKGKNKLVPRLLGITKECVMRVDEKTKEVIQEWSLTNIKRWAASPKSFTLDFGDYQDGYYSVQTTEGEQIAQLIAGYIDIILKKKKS

Work on “M319A F3 mutant (from UniProt P26039 309-405) (domain or fragment)” yielded a Kd (β3-integrin tail) of 225 µM.

Work on “talin 1655–1822 rod domain (from UniProt P26039 1655-1822) (domain or fragment)” yielded a fold decrease in affinity against wild-type F3 (talin F3 K324D (mouse)) of 23 fold and a fold decrease in binding affinity against wild-type F3 (talin F3 Y377A (mouse)) of 5 fold.

B1: talin F3 FERM subdomain (residues 309–400) (domain or fragment)
chain: GVSFFLVKEKMKGKNKLVPRLLGITKECVMRVDEKTKEVIQEWSLTNIKRWAASPKSFTLDFGDYQDGYYSVQTTEGEQIAQLIAGYIDIIL
B1: binds (talin 1655–1822 Q1764A); binds (talin 1655–1822 Y1777A); binds (talin 1655–1822 S1684D). For the same molecule, the Kd [1] was 11 µM and 9 µM and the binding result (talin 1655–1822 T1767A) was “binds”.

In the case of KLLITIHDRKEFAKFEEERARAKWDTANNPLYKEATSTFTNITYRGT (domain or fragment) [β3-integrin tail], the Kd [2] is reported as 273 ± 6 µM.
